Results from US20070292907A1, “Compositions and method for regulating ubiquitin-specific processing proteases” (priority 2005, published 2007).

Assays:
Assay in all cases: covalent modification by UbVS (immunoblot of UbVS adducts)
UCH37 = target: T1, UCH37 (Bos taurus, UniProt Q9XSJ0); assay type: biochemical, bovine; conditions: reactions in the presence of 19S RP, relative to the USP14 adduct; FIG. 5C lanes 2 and 4
T1 construct: UCH37 was present in the reactions as a stoichiometric component of the 19S RP complex; from tissue; host or cells: bovine 19S complex (PA700), gift
T1 sequence (Q9XSJ0 1-328): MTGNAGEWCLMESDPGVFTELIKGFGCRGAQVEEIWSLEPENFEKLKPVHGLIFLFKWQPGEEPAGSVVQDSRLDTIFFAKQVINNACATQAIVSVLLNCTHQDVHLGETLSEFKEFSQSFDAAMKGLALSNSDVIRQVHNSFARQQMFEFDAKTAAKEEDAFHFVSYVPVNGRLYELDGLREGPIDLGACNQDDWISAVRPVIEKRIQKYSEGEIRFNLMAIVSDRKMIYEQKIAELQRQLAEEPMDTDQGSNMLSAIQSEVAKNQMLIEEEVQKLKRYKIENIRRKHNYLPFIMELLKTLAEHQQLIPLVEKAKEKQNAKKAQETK
T1 sequence (A1L5A6 1-407 partner): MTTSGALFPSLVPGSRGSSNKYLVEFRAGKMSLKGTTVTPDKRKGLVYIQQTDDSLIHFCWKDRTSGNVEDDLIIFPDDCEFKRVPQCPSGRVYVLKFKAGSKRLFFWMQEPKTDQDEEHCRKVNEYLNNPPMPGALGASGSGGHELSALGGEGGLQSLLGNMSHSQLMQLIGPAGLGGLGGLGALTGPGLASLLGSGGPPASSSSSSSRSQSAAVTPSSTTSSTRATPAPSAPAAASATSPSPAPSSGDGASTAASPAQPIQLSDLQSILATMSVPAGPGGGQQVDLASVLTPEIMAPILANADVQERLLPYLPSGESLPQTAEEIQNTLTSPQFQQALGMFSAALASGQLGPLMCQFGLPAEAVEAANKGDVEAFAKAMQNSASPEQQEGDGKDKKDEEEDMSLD
Protocol: Two factors contribute to this observation.
(§1) UbVS was prepared as previously described (Borodovsky et al. (2001) supra). […] UbVS was then added to the sample to give approximately 1:1 stoichiometry with the 19S complex. Incubation was continued for another hour and then stopped by the addition of 2×SDS sample buffer. The reaction mixtures were resolved by 14% SDS-PAGE, transferred to nitrocellulose membrane, and the UbVS adducts were detected with mouse monoclonal anti-ubiquitin antibody (P4D1) (Santa Cruz).

USP14-ΔUBL (91-494) = target: T2, USP14-ΔUBL (91-494) (Homo sapiens, UniProt P54578); assay type: biochemical; conditions: both in the absence and presence of the 19S regulatory particle; FIG. 5C lanes 1 and 2
T2 construct: 3.5 μM full-length USP14 or USP14-AUBL (91-494) was incubated with or without 157 nM bovine 19S complex (PA700); GST (N); made in house
Protocol: (§2) Ubiquitin vinylsulfone (UbVS) is a specific covalent inhibitor of a large subset of deubiquitinating enzymes, and thus can be used as an active site-directed probe for the detection of DUB activity (Borodovsky et al. (2001) supra). In order to examine the effect of proteasome association on the activity of USP14, the purified recombinant USP14 proteins were pre-incubated with or without the 19S RP and then assayed for covalent modification by UbVS.
as §1

full-length USP14 = target: T3, full-length USP14 (Homo sapiens, UniProt P54578); assay type: biochemical
T3 construct: 3.5 μM full-length USP14 or USP14-AUBL (91-494) was incubated with or without 157 nM bovine 19S complex (PA700); GST (N); made in house
Protocol: as §2, §1

T3 sequence (P54578 whole entry): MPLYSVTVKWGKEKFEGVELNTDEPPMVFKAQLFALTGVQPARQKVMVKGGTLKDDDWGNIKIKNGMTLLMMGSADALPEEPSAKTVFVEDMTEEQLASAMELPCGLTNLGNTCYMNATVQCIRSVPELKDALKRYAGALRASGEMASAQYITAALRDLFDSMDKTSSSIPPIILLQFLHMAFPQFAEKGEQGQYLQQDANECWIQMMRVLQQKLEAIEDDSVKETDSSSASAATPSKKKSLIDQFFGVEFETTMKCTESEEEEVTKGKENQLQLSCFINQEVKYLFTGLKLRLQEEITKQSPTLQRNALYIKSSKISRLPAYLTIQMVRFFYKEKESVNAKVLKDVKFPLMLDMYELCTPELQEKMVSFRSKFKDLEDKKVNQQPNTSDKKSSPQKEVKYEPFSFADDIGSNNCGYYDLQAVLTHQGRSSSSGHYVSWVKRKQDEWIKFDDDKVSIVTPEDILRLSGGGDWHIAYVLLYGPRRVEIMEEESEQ
T2 sequence (P54578 91-494, stated change not applied): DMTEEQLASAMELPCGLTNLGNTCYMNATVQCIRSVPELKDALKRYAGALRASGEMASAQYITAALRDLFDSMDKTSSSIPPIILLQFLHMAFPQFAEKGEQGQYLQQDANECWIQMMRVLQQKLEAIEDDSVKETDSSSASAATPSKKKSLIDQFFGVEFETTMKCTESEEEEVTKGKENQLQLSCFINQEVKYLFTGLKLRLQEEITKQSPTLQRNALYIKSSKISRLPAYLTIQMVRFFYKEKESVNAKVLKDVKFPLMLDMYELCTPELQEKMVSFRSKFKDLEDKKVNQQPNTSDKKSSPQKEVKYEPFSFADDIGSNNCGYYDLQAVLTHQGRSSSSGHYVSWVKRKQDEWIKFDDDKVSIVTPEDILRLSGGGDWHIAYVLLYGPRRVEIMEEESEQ

- UCH37-UbVS adduct detected (UCH37): only a trace amount
- activity toward UbVS (USP14-ΔUBL (91-494)): extremely low activity
- USP14-UbVS complex formation (full-length USP14; full-length USP14 with 19S regulatory particle added, FIG. 5C lane 4): strong USP14-UbVS band
Substance: Ubiquitin vinylsulfone [UbVS]
- USP14-UbVS complex formation (full-length USP14; full-length USP14 by itself, without 19S RP, FIG. 5C lane 3): no detectable USP14-UbVS complex formation
